Data taken from paper PMC11472163, “Crystal structure and nucleic acid binding mode of CPV NSP9: implications for viroplasm in Reovirales”.

How the values were obtained:
[1] = molecular target: BmCPV1 NSP9^ΔC (1–286 amino acid residues, lacking residues 287–320), expressed in E. coli (Bombyx mori cypovirus 1 (BmCPV1)); test: AUC
[2] = molecular target: BmCPV1 NSP9^ΔC (1–286 amino acid residues, lacking residues 287–320), expressed in E. coli (Bombyx mori cypovirus 1 (BmCPV1)); test: SEC; […]; 10 mM HEPES pH 7.5, 100 mM NaCl; […]
NSP9ΔC [3] = molecular target: T1, NSP9ΔC (Bombyx mori cypovirus 1 (BmCPV1), UniProt O72505 1-286); test: EMSA; two sequential bands; 2:1 dimer:NA; […]; SEC: 10 mM HEPES pH 7.5, 100 mM NaCl; settings: protein: recombinant; chain copies: 2; label: 5' 6-FAM
NSP9ΔC [4] = molecular target: T1, NSP9ΔC; test: EMSA; no significant difference from DNA; […]; SEC: 10 mM HEPES pH 7.5, 100 mM NaCl; settings: protein: recombinant; chain copies: 2; label: 5' 6-FAM
NSP9ΔC [5] = molecular target: T1, NSP9ΔC; test: EMSA; 1:1 NSP9ΔC dimer:ssDNA; […]; SEC: 10 mM HEPES pH 7.5, 100 mM NaCl; settings: protein: recombinant; chain copies: 2; label: 5' 6-FAM (EMSA)

For “BmCPV1 NSP9^ΔC (1–286 amino acid residues, lacking residues 287–320), expressed in E. coli (domain or fragment)”, the stoichiometry N [1] was 2 and the stoichiometry N [2] was 2.

B1: 30 nt ssDNA (ssDNA)
DNA: AGTAAATCCCAGGCGCTCGGGTCGTTAGCC
B1: binds (NSP9ΔC [3]).

B2: 15 nt ssRNA (ssRNA)
RNA: AGUAAGCUGUUAGCC
B2: binds (NSP9ΔC [4]).

B3: 30 nt ssRNA (ssRNA)
RNA: AGUAAAUCCCAGGCGCUCGGGUCGUUAGCC
B3: binds (NSP9ΔC [3]).

B4: 15 nt ssDNA (ssDNA)
DNA: AGTAAGCTGTTAGCC
B4: binds (NSP9ΔC [5]).
